# Data: paper PMC7954794, “Protein context shapes the specificity of SH3 domain-mediated interactions in vivo” (Nature Communications, 2021)
# B1: HOF1 (protein, UniProt Q05080 1-669, looked up)
# Cytokinesis protein 2: MSYSYEACFWDPNDNGVNILLGHISQGIRSCDSMILFFKQRSELEKDYARRLGAITGKLDKDIGTNMDYGKLNETFNVVLSVEKARAQSHSKQSEILFRQIYTDTKAFAANLQARYTTLSGKIERLRMDKFNKKKGCEVLQKKLQDAQIRFRDLQLNENNMIGAKRVEHNKRELLKWESNSQEYKVQLDVLKQEYKASQKFWIHEWAQLSCELQEMENARISFLQSKLQQFATSSMETYILEQTKMDMLTNHLNSFTAADEISTFSKENGTGRLKHKTSKGDMNSSANWAQMSSISTTSKKTESYMDNIRKLSSQLKETENKRKLASIDKYEKPLPSPEVTMATQFRNSTPVIRNETKVVANPTLSLRSSPVQLQSNVDDSVLRQKPDKPRPIVGEEQLKPDEDSKNPDEKGLMVHKRNQSLSSPSESSSSNPTDFSHIKKRQSMESMTTSVSSMANSIDDSQRFAKSWNSSNRKRKSMSHLQVPSSASSRSDDGGRTPNSAHNLNEDDYNTRRDTSTSTILFKPPVAVRGTSRGHTHRQSMIMQDSSNPIEDALYEMERIQSSSKPGTKTGNIMDERGVVRDRGITVTLPIVTSEGFPVIEYAKAMYPLIGNEAPGLANFHKGDYLLITEIVNKDWYKGEVYDNDRIDRNHRIGLIPYNFIQLLHQGL
# B2: HSE1 (protein, UniProt P38753 2-452, looked up)
# Class E vacuolar …: SSSAIKIRNALLKATDPKLRSDNWQYILDVCDLVKEDPEDNGQEVMSLIEKRLEQQDANVILRTLSLTVSLAENCGSRLRQEISSKNFTSLLYALIESHSVHITLKKAVTDVVKQLSDSFKDDPSLRAMGDLYDKIKRKAPYLVQPNVPEKHNMSTQADNSDDEELQKALKMSLFEYEKQKKLQEQEKESAEVLPQQQQQHQQQNQAPAHKIPAQTVVRRVRALYDLTTNEPDELSFRKGDVITVLEQVYRDWWKGALRGNMGIFPLNYVTPIVEPSKEEIEKEKNKEAIVFSQKTTIDQLHNSLNAASKTGNSNEVLQDPHIGDMYGSVTPLRPQVTRMLGKYAKEKEDMLSLRQVLANAERSYNQLMDRAANAHISPPVPGPALYAGMTHANNTPVMPPQRQSYQSNEYSPYPSNLPIQHPTNSANNTPQYGYDLGYSVVSQPPPGYEQ
# B3: LSB1 (protein, UniProt P53281 2-241, looked up)
# LAS seventeen-binding protein …: SASLVNRSLKNIRNELEFLKESNVISGDIFELINSKLPEKWDGNQRSPQNADTEEYVEALYDFEAQQDGDLSLKTGDKIQVLEKISPDWYRGKSNNKIGIFPANYVKPAFTRSASPKSAEAASSSTVSRPSVPPPSYEPAASQYPSQQVSAPYAPPAGYMQAPPPQQQQAPLPYPPPFTNYYQQPQQQYAPPSQQAPVEAQPQQSSGASSAFKSFGSKLGNAAIFGAGSAIGSDIVNSIF
# System: growth of yeast strains under 51 stress conditions
# Test: Growth assays in 51 stress conditions (Fig. 1E-F, S2D, S5B)
# Format: cell-based, Saccharomyces cerevisiae
# Set-up: key to Growth (Fig. S2D) / growth of ABP1 SH3-swapped strains in stress condition: log2 colony size, average of median per strain (growth score)
# Details: Bathophenanthroline.0.1uM; ABP1 SH3-swapped strains
# Method in brief: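 Colony sizes at 74 h on 51 stress media (37 °C) were log2 transformed, corrected for plate effects, and averaged across two plates as per-plate medians (growth score). Strains arrayed in 12 replicates with WT border, grown first on YPD for two days at 30 °C.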
row,Molecule,Growth (Fig. S2D)
1,B1,10.8727
2,B2,10.8649
3,B3,10.7989

# Same assay, conditions: Bathophenanthroline.10uM; ABP1 SH3-swapped strains
row,Molecule,Growth (Fig. S2D)
1,B1,10.6716
2,B2,10.6324
3,B3,10.6305

# Same assay, conditions: Bathophenanthroline.1uM; ABP1 SH3-swapped strains
row,Molecule,Growth (Fig. S2D)
1,B1,10.8166
2,B2,10.7994
3,B3,10.7471

# Same assay, conditions: CaCl2.100mM; ABP1 SH3-swapped strains
row,Molecule,Growth (Fig. S2D)
1,B1,10.8864
2,B2,10.826
3,B3,10.8093

# Same assay, conditions: CaCl2.250mM; ABP1 SH3-swapped strains
row,Molecule,Growth (Fig. S2D)
1,B1,10.8461
2,B2,10.8072
3,B3,10.7989

# Same assay, conditions: CaCl2.500mM; ABP1 SH3-swapped strains
row,Molecule,Growth (Fig. S2D)
1,B1,10.3385
2,B2,10.2874
3,B3,10.2904

# Same assay, conditions: Caffein.10mM; ABP1 SH3-swapped strains
row,Molecule,Growth (Fig. S2D)
1,B1,10.1794
2,B2,10.0363
3,B3,10.1077

# Same assay, conditions: Caffein.2mM; ABP1 SH3-swapped strains
row,Molecule,Growth (Fig. S2D)
1,B1,11.0235
2,B2,11.0184
3,B3,10.9656

# Same assay, conditions: CdCl2.100uM; ABP1 SH3-swapped strains
row,Molecule,Growth (Fig. S2D)
1,B1,9.561
2,B2,9.591
3,B3,9.41

# Same assay, conditions: CdCl2.10uM; ABP1 SH3-swapped strains
row,Molecule,Growth (Fig. S2D)
1,B1,10.9284
2,B2,10.9135
3,B3,10.8732

# Same assay, conditions: CdCl2.50uM; ABP1 SH3-swapped strains
row,Molecule,Growth (Fig. S2D)
1,B1,9.924
2,B2,9.882
3,B3,9.85

# Same assay, conditions: CuSO4.1mM; ABP1 SH3-swapped strains
row,Molecule,Growth (Fig. S2D)
1,B1,10.5096
2,B2,10.4158
3,B3,10.4529

# Same assay, conditions: CuSO4.5mM; ABP1 SH3-swapped strains
row,Molecule,Growth (Fig. S2D)
1,B1,8.102
2,B2,7.9665
3,B3,7.9447

# Same assay, conditions: Cycloheximide.0.05.uM; ABP1 SH3-swapped strains
row,Molecule,Growth (Fig. S2D)
1,B1,11.0987
2,B2,11.0571
3,B3,11.0938

# Same assay, conditions: Cycloheximide.0.2.uM; ABP1 SH3-swapped strains
row,Molecule,Growth (Fig. S2D)
1,B1,10.6706
2,B2,10.6529
3,B3,10.6171

# Same assay, conditions: Cycloheximide.0.5.uM; ABP1 SH3-swapped strains
row,Molecule,Growth (Fig. S2D)
1,B1,10.177
2,B2,10.099
3,B3,10.0964

# Same assay, conditions: DMSO.2.; ABP1 SH3-swapped strains
row,Molecule,Growth (Fig. S2D)
1,B1,11.0794
2,B2,11.0462
3,B3,11.0559

# Same assay, conditions: DMSO.6.; ABP1 SH3-swapped strains
row,Molecule,Growth (Fig. S2D)
1,B1,9.956
2,B2,9.883
3,B3,9.9059

# Same assay, conditions: DMSO.8.; ABP1 SH3-swapped strains
row,Molecule,Growth (Fig. S2D)
1,B1,9.269
2,B2,9.238
3,B3,9.2023

# Same assay, conditions: Ethanol.2.; ABP1 SH3-swapped strains
row,Molecule,Growth (Fig. S2D)
1,B1,10.828
2,B2,10.7698
3,B3,10.7659

# Same assay, conditions: Ethanol.6.; ABP1 SH3-swapped strains
row,Molecule,Growth (Fig. S2D)
1,B1,10.3088
2,B2,10.2684
3,B3,10.2982

# Same assay, conditions: Ethanol.8.; ABP1 SH3-swapped strains
row,Molecule,Growth (Fig. S2D)
1,B1,10.1098
2,B2,10.106
3,B3,10.0154

# Same assay, conditions: Galactose.2.; ABP1 SH3-swapped strains
row,Molecule,Growth (Fig. S2D)
1,B1,10.8257
2,B2,10.7486
3,B3,10.7736

# Same assay, conditions: Glycerol.2.; ABP1 SH3-swapped strains
row,Molecule,Growth (Fig. S2D)
1,B1,9.711
2,B2,9.782
3,B3,9.808

# Same assay, conditions: Hydroxyurea.25mM; ABP1 SH3-swapped strains
row,Molecule,Growth (Fig. S2D)
1,B1,10.8274
2,B2,10.7604
3,B3,10.7374

# Same assay, conditions: Hygromycin.190uM; ABP1 SH3-swapped strains
row,Molecule,Growth (Fig. S2D)
1,B1,11.0188
2,B2,10.981
3,B3,11.0084

# Same assay, conditions: Hygromycin.19uM; ABP1 SH3-swapped strains
row,Molecule,Growth (Fig. S2D)
1,B1,11.0238
2,B2,10.9309
3,B3,10.9924

# Same assay, conditions: Hygromycin.95uM; ABP1 SH3-swapped strains
row,Molecule,Growth (Fig. S2D)
1,B1,11.0846
2,B2,11.0429
3,B3,10.9928

# Same assay, conditions: MMS.0.004.; ABP1 SH3-swapped strains
row,Molecule,Growth (Fig. S2D)
1,B1,10.9957
2,B2,11.0045
3,B3,10.965

# Same assay, conditions: MMS.0.02.; ABP1 SH3-swapped strains
row,Molecule,Growth (Fig. S2D)
1,B1,10.7428
2,B2,10.6778
3,B3,10.7457

# Same assay, conditions: MMS.0.04.; ABP1 SH3-swapped strains
row,Molecule,Growth (Fig. S2D)
1,B1,9.974
2,B2,10.0151
3,B3,10.0868

# Same assay, conditions: Menadione.100uM; ABP1 SH3-swapped strains
row,Molecule,Growth (Fig. S2D)
1,B1,10.6873
2,B2,10.5782
3,B3,10.5379

# Same assay, conditions: Menadione.200uM; ABP1 SH3-swapped strains
row,Molecule,Growth (Fig. S2D)
1,B1,10.4637
2,B2,10.4179
3,B3,10.4102

# Same assay, conditions: Menadione.50uM; ABP1 SH3-swapped strains
row,Molecule,Growth (Fig. S2D)
1,B1,10.8466
2,B2,10.792
3,B3,10.7973

# Same assay, conditions: NaCl.0.25M; ABP1 SH3-swapped strains
row,Molecule,Growth (Fig. S2D)
1,B1,10.8422
2,B2,10.7546
3,B3,10.8176

# Same assay, conditions: NaCl.1M; ABP1 SH3-swapped strains
row,Molecule,Growth (Fig. S2D)
1,B1,9.66
2,B2,9.884
3,B3,9.837

# Same assay, conditions: Nitroquinoline.10uM; ABP1 SH3-swapped strains
row,Molecule,Growth (Fig. S2D)
1,B1,10.7373
2,B2,10.6974
3,B3,10.6531

# Same assay, conditions: Nitroquinoline.50uM; ABP1 SH3-swapped strains
row,Molecule,Growth (Fig. S2D)
1,B1,10.5646
2,B2,10.5671
3,B3,10.6066

# Same assay, conditions: Nystatin.0.01uM; ABP1 SH3-swapped strains
row,Molecule,Growth (Fig. S2D)
1,B1,10.9834
2,B2,11.0224
3,B3,10.9737

# Same assay, conditions: Nystatin.0.1uM; ABP1 SH3-swapped strains
row,Molecule,Growth (Fig. S2D)
1,B1,10.9984
2,B2,11.0326
3,B3,10.9631

# Same assay, conditions: Raffinose.2.; ABP1 SH3-swapped strains
row,Molecule,Growth (Fig. S2D)
1,B1,11.035
2,B2,11.0272
3,B3,11.0015

# Same assay, conditions: Rapamycin.10nM; ABP1 SH3-swapped strains
row,Molecule,Growth (Fig. S2D)
1,B1,9.895
2,B2,9.925
3,B3,9.7845

# Same assay, conditions: Rapamycin.50nM; ABP1 SH3-swapped strains
row,Molecule,Growth (Fig. S2D)
1,B1,9.528
2,B2,9.396
3,B3,9.381

# Same assay, conditions: SC.pH3; ABP1 SH3-swapped strains
row,Molecule,Growth (Fig. S2D)
1,B1,10.4278
2,B2,10.4058
3,B3,10.3983

# Same assay, conditions: SC.pH6; ABP1 SH3-swapped strains
row,Molecule,Growth (Fig. S2D)
1,B1,10.9986
2,B2,10.9649
3,B3,10.9866

# Same assay, conditions: SDS.0.01.; ABP1 SH3-swapped strains
row,Molecule,Growth (Fig. S2D)
1,B1,11.0079
2,B2,10.9823
3,B3,10.9788

# Same assay, conditions: SDS.0.02.; ABP1 SH3-swapped strains
row,Molecule,Growth (Fig. S2D)
1,B1,11.0441
2,B2,10.9972
3,B3,10.9881

# Same assay, conditions: SDS.0.05.; ABP1 SH3-swapped strains
row,Molecule,Growth (Fig. S2D)
1,B1,10.886
2,B2,10.8418
3,B3,10.872

# Same assay, conditions: Sorbitol.10mM; ABP1 SH3-swapped strains
row,Molecule,Growth (Fig. S2D)
1,B1,11.0139
2,B2,11.0121
3,B3,11.0061

# Same assay, conditions: Sorbitol.1mM; ABP1 SH3-swapped strains
row,Molecule,Growth (Fig. S2D)
1,B1,11.1055
2,B2,11.0602
3,B3,11.049

# Same assay, conditions: Sorbitol.5mM; ABP1 SH3-swapped strains
row,Molecule,Growth (Fig. S2D)
1,B1,10.9626
2,B2,10.8937
3,B3,10.9179
